Kd and specific binding, fold over background (the pair that is blocked) data for three substances are collected here from paper PMC5925078.

One experiment has as its target TNFR1 ECD (Homo sapiens) (UniProt P19438). The experiment can be described thus: SPR. To be noted: cited from earlier work.
In a further experiment the target is TNFR2 ECD (Homo sapiens) (UniProt P20333). Nature of the experiment: SPR. To be noted: cited from earlier work.
Another experiment has as its target membrane TNF (UniProt P01375). The experiment can be described thus: cellular binding study with GpL (luciferase) fusion protein; reciprocal competition; memTNF-expressing HEK293 transfectants incubated 90 min with 100 ng/ml TNFR1ed-GpL or TNFR2ed-GpL, alone or mixed with 2,000 ng/ml sTNF or 2,000 ng/ml PGRNAdi; EV transfectants as non-specific binding.

pKd: −log10 of the molar value.

The pKd is −log10 of the Kd, conventionally taken in molar units. As for Progranulin (from UniProt P28799), the pKd with TNFR1 ECD (Homo sapiens) was 8.75; with TNFR2 ECD (Homo sapiens), 8.82. Regarding “TNFR1ed-GpL (from UniProt P19438 30-211) (receptor)”, in the experiment with membrane TNF, the specific binding, fold over background (the pair that is blocked) is over 2000 fold.

The substance “TNFR2ed-GpL (from UniProt P20333 23-257) (receptor)” showed a specific binding, fold over background (the pair that is blocked) in the experiment with membrane TNF of over 200 fold.
